Measurements: patent publication US20160355575A1 (Hoffmann-La Roche, published 2016)

T1: Aβ fragment 1-16 (human)
T1 construct: also called Aβ1-16; Aβ16
T1 peptide: DAEFRHDSGYEVHHQK

T2: Aβ fragment 29-40 (human)
T2 peptide: GAIIGLMVGGVV

B1: VHH R3VQ (VHH)
VHH: EVQLQASGGGLVQTGDSLRLSCADSGSTFRNYNIGWFRQTPGQAREFVAAVSRTGISTHVADSLQGRFTISRDNAKNTVYLQMNSLKPEDTAVYSCAAGRPGVGAVNRAMDYDYWGQGTQVTVSS
notes: Alpaca VHH, monomeric; Expressed with a His-tag or a Strep-tag; also called R3VQ(His)-NH2 1; R3VQ-NH2 1; not shown: 6-Histidine tag (vector pET23) or Streptavidin-tag (vector pASK IBA2)
B2: R3VQ(His)-N-(DOTA/Gd) conjugate 2d (VHH)
VHH: B1 VHH
modifications: DOTA/Gd randomly on lysine residues; average Gd/protein (1) 2 (3)
notes: Non-site-specific conjugate of R3VQ(His)-NH2 1; not shown: 6-Histidine tag from modified vector pET23
B3: R3VQ(His)-N-(DOTA/Gd) conjugate 2c (VHH)
VHH: B1 VHH
modifications: DOTA/Gd randomly on lysine residues; average Gd/protein (1) 2 (3)
notes: as for B2
B4: Aβ 16-35 (peptide)
peptide: KLVFFAEDVGSNKGAIIGLM
notes: This fragment is not in the list of fragments said to be tested (1-16, 10-20, 15-25, 22-35, 29-40)

Assays:
Aβ fragment 1-16 = target: T1, Aβ fragment 1-16; assay: competitive inhibition ELISA with soluble Aβ fragments
Protocol: (§1) The binding affinity of VHHs was determined as previously described (Friguet B. et al., 1985, Immunol Methods, 77:305-19). Briefly, various concentrations of Aβ peptides (Aβ fragments 1-16, 10-20, 15-25, 22-35 and 29-40) were incubated in solution overnight at 4° C. with a known quantity of VHH until equilibrium was reached. The VHH concentration used was deteimined by preliminary ELISA calibrations. Each mixture (100 μl) was transferred to a well of a microtiter plate previously coated with antigen and was incubated for 20 min at 4° C. The plates were washed with buffer 0.1% Tween 20 in PBS and bound VHHs were detected by adding beta-galactosidase-conjugated goat anti-rabbit Igs (Biosys, Compiegne, France) and 4-methylumbelliferyl […] (Sigma). Fluorescence was read (Fluoroskan, Labsystem, Finland) at 460 nm, after excitation at 355 nm. KD was estimated from the slope of the regression curve obtained by plotting the reciprocal of the fraction of bound antibody versus the reciprocal of the molar concentration of antigen.

Aβ fragment 29-40 = target: T2, Aβ fragment 29-40; assay: as above
Protocol: as §1

A-beta 42 peptide (Aβ42) = target: T3, A-beta 42 peptide (Aβ42) (human); assay: competition ELISA in solution (method of Friguet et al.)
T3 construct: Synthetic peptide (Bachem); on the western blot it ran as monomers, dimers and trimers; also called Aβ1-42; amyloid β peptide 42

A-beta 40 peptide (Aβ40) = target: T4, A-beta 40 peptide (Aβ40) (human, biotinylated when bound to the streptavidin-coated ELISA plate); assay: ELISA on plate-bound Aβ
T4 construct: Aβ42 without the C-terminal amino acids IA; The ELISA methods say A-beta 40 or A-beta 42 (preferably A-beta 40); also called Aβ1-40

VHH R3VQ = target: B1; assay: competitive inhibition ELISA, soluble peptide against plate-coated Aβ antigen
Protocol: as §1

T4 sequence (peptide, as listed by the source): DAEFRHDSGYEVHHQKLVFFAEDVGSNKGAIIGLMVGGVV
T3 sequence (peptide, as listed by the source): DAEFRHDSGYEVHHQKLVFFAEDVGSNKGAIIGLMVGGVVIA

Binder: B1
binding result (Aβ fragment 1-16): no binding
binding result (Aβ fragment 29-40): no binding
Kd (A-beta 42 peptide (Aβ42)): 17 nM

Binder: B2
binding in ELISA compared to the original VHH 1 (A-beta 40 peptide (Aβ40)): ~10%

Binder: B3
binding in ELISA compared to the original VHH 1 (A-beta 40 peptide (Aβ40)): ~10%

Binder: B4
IC50 (VHH R3VQ): 16 nM
